± gives the uncertainty stated by the source.
B1: Glucocorticoid receptor, residues 419 to 494; numbered along this chain, P04150 (parent)
chain: KLCLVCSDEASGCHYGVLTCGSCKVFFKRAVEGQHNYLCAGRNDCIIDKIRRKNCPACRYRKCLQAGMNLEARKTK

Variants of: B1
Experiment: abundance fitness (aPCA) (normalised: wild type 0, dead -1); higher = more abundant; growth selection in yeast, the domain comes from the species named
Settings: Homo sapiens
With V25A the abundance fitness was 0.045 ± 0.056. V25E gave an abundance fitness of 0.051 ± 0.076. With C23R the abundance fitness was -0.056 ± 0.36. For S22P, the abundance fitness was -0.06 ± 0.38. For S22D, the abundance fitness was 0.136 ± 0.3. S22F showed an abundance fitness of 0.043 ± 0.11. For V17P, the abundance fitness was -0.215 ± 0.064. For V17Y, the abundance fitness was -0.451 ± 0.1. For V17M, the abundance fitness was -0.379 ± 0.35. Variant V17Q has an abundance fitness of -0.194 ± 0.047. For V17R, the abundance fitness was -0.141 ± 0.049. In the case of V17L, the abundance fitness is reported as -0.16 ± 0.038. Work on V17S yielded an abundance fitness of -0.172 ± 0.052. With V17K the abundance fitness was -0.013 ± 0.38. For V17W, the abundance fitness was -0.641 ± 0.084. Work on F27A yielded an abundance fitness of -0.25 ± 0.038. For F27E, the abundance fitness was -1.01 ± 0.16. With F27K the abundance fitness was -0.951 ± 0.2. Work on F27G yielded an abundance fitness of -0.929 ± 0.089. F27W gave an abundance fitness of -0.071 ± 0.038. F27M showed an abundance fitness of -0.144 ± 0.052. For F27I, the abundance fitness was -0.26 ± 0.08. For F27Q, the abundance fitness was -0.896 ± 0.14. F27Y gave an abundance fitness of 0 ± 0.073. For F27N, the abundance fitness was -0.722 ± 0.25. Variant F27P has an abundance fitness of -0.695 ± 0.15. With F27S the abundance fitness was -0.681 ± 0.079. With F27C the abundance fitness was -0.518 ± 0.11. For F27D, the abundance fitness was -0.912 ± 0.18. In the case of F27V, the abundance fitness is reported as -0.386 ± 0.041. For F27R, the abundance fitness was -0.678 ± 0.053. In the case of T19L, the abundance fitness is reported as -0.184 ± 0.037. Work on T19R yielded an abundance fitness of -0.929 ± 0.099. With T19Q the abundance fitness was -0.559 ± 0.067. In the case of T19V, the abundance fitness is reported as -0.011 ± 0.035. With T19M the abundance fitness was -0.176 ± 0.059. Variant T19N has an abundance fitness of -0.557 ± 0.14. Work on T19G yielded an abundance fitness of -0.393 ± 0.044. T19W gave an abundance fitness of -0.743 ± 0.11. With T19A the abundance fitness was -0.031 ± 0.038. Work on T19H yielded an abundance fitness of -0.311 ± 0.1. In the case of T19P, the abundance fitness is reported as -0.791 ± 0.13. T19S showed an abundance fitness of 0.034 ± 0.039. T19E gave an abundance fitness of -1.03 ± 0.19. Variant T19I has an abundance fitness of -0.057 ± 0.07. Variant T19C has an abundance fitness of 0.061 ± 0.053. Work on T19D yielded an abundance fitness of -0.909 ± 0.31. In the case of T19Y, the abundance fitness is reported as -0.697 ± 0.22. L18T showed an abundance fitness of -0.031 ± 0.058. With L18S the abundance fitness was 0.038 ± 0.05. Work on L18E yielded an abundance fitness of -0.045 ± 0.052. L18M showed an abundance fitness of -0.077 ± 0.056. L18I showed an abundance fitness of 0.035 ± 0.082. Variant L18Y has an abundance fitness of 0.098 ± 0.086. Work on L18F yielded an abundance fitness of -0.002 ± 0.067. In the case of L18V, the abundance fitness is reported as 0 ± 0.041. L18A gave an abundance fitness of 0.097 ± 0.044. Variant L18K has an abundance fitness of -0.088 ± 0.044. Variant L18D has an abundance fitness of 0.062 ± 0.062. Work on L18G yielded an abundance fitness of -0.191 ± 0.042. Work on L18R yielded an abundance fitness of -0.036 ± 0.036. With L18W the abundance fitness was -0.01 ± 0.047. L18P gave an abundance fitness of -0.004 ± 0.055. L18N gave an abundance fitness of -0.1 ± 0.081. With L18Q the abundance fitness was -0.087 ± 0.05. With L18H the abundance fitness was -0.012 ± 0.08. In the case of F26H, the abundance fitness is reported as -0.513 ± 0.16. Work on F26E yielded an abundance fitness of -0.891 ± 0.12. With F26Q the abundance fitness was -0.858 ± 0.17. F26P gave an abundance fitness of -0.872 ± 0.15. Variant F26N has an abundance fitness of -0.714 ± 0.28. With F26V the abundance fitness was -0.738 ± 0.084. In the case of F26L, the abundance fitness is reported as -0.655 ± 0.075. For F26K, the abundance fitness was -0.929 ± 0.14. Variant F26A has an abundance fitness of -0.877 ± 0.099. For F26W, the abundance fitness was -0.462 ± 0.065. For F26R, the abundance fitness was -0.758 ± 0.071. F26C gave an abundance fitness of -0.636 ± 0.17. Work on F26G yielded an abundance fitness of -1 ± 0.11. F26Y gave an abundance fitness of -0.36 ± 0.12. In the case of F26S, the abundance fitness is reported as -0.703 ± 0.076. With F26M the abundance fitness was -0.793 ± 0.14. F26D showed an abundance fitness of -1.01 ± 0.26. With F26T the abundance fitness was -1.06 ± 0.18.

Reference: the Human Domainome abundance scans (Beltran et al. 2025)
